# Test results taken from FireProtDB (doi:10.1021/bi049405c).
# Several values for one entry are separate records, joined by “and”; a condition that tells them apart may be missing. Equal entries are not always repeated.
# B1: Nickel-responsive regulator wild type, P0A6Z6 (protein)
# chain: MQRVTITLDDDLLETLDSLSQRRGYNNRSEAIRDILRSALAQEATQQHGTQGFAVLSYVYEHEKRDLASRIVSTQHHHHDLSVATLHVHINHDDCLEIAVLKGDMGDVQHFADDVIAQRGVRHGHLQCLPKED
# Conditions: Escherichia coli (strain K12); pH 7.6; 25 °C; GdnHCl; CD; HEPES 10 mM; KCl 100 mM; transition: 3; reversible: yes; whole UniProt chain shown
protein,measurement,value
B1,denaturant midpoint (higher = more stable),1.2 M and 2.8 M
